Measured values published in US20190359683A1 (Stanford University, published 2019).

What was measured:
[1] = target: T1, recombinantly produced ciliary neurotrophic factor (CNTF) (UniProt P26441 1-200, limits assumed); assay: ELISA
T1 sequence (looked up): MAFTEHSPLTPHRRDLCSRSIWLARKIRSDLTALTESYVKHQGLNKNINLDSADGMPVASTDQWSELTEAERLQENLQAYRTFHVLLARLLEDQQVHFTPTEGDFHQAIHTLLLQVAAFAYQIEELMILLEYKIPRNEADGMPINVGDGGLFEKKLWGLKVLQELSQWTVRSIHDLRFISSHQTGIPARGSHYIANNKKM

mouse CLCF1 (mCLCF1) = target: T2, mouse CLCF1 (mCLCF1) (mouse, UniProt Q9QZM3 28-225, limits assumed); assay: ELISA
T2 construct: also called serum CLCF1 (mouse)
T2 sequence (looked up): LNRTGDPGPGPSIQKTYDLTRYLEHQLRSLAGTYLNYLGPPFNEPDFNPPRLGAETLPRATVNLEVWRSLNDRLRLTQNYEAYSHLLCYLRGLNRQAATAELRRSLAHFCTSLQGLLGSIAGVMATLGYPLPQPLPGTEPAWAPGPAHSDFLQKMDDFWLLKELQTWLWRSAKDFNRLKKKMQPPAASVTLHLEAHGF

[2] = target: T3, recombinant human cardiotrophin-like cytokine factor 1 (CLCF1) (human, UniProt Q9UBD9 28-225, limits assumed); assay: ELISA: incubated with CLCF1 4 h at room temperature, complex captured on anti-mouse Fc plate, detected with rabbit anti-CLCF1
T3 construct: also called hCLCF1
T3 sequence (looked up): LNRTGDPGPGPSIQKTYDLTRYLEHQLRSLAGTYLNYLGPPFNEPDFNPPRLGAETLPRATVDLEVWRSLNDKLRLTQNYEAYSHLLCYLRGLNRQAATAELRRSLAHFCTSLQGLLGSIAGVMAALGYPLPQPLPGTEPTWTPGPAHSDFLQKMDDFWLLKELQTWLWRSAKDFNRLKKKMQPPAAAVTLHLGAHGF
Description: Then the complexes were captured using microtiter plates coated with anti-his antibody or anti-mouse Fc antibody. […] The same approach was used to characterize binding interaction with the beta receptors.

B1: eCNTFR-Fc (soluble engineered CNTFR fused to mouse IgG2a Fc) (Fc fusion)
chain: QRHSPQEAPHVQYERLGSDVTLPCGTANWDAAVTWRVNGTDLAPDLLNGSQLVLHGLELGHSGLYACFHRDSWHLRHQVLLHVGLPPQEPVLSCRSNTYPKGFYCSWHLPTPTYIPNTFNVTVLHGSKIMVCEKDPALKNRCHIRYMHLFSPIKHNVSISVSNALGHNATAITFDEFTIVKPDPPENVVARPVPSNPRRLEVTWQTPSTWPDPEFFPLKFFLRYRPLILDQWQHVELSDGTAHTIAAAYAGKEYIIQVAAKDNEFGTWSDWSVAAHATPWTEEPRHLTTEAQAAETTTSTTSSLAPPPTTKICDPGELGSRRLEPRGPTIKPCPPCKCPAPNLLGGPSVFIFPPKIKDVLMISLSPIVTCVVVDVSEDDPDVQISWFVNNVEVHTAQTQTHREDYNSTLRVVSALPIQHQDWMSGKEFKCKVNNKDLPAPIERTISKPKGSVRAPQVYVLPPPEEEMTKKQVTLTCMVTDFMPEDIYVEWTNNGKTELNYKNTEPVLDSDGSYFMYSKLRVEKKNWVERNSYSCSVVHEGLHNHHTTKSFSRTPGK
notes: Made in HEK293; also called Fc fusion eCNTFR; engineered CLCF1 trap
binding result [1]: no binding | binding result (mouse CLCF1 (mCLCF1)): binds | binding result [2]: binds
